Experimental data: paper PMC10502760, “MdNAC104 positively regulates apple cold tolerance via CBF‐dependent and CBF‐independent pathways”
Changes are numbered by the printed parent chain.

T1: MdNAC104-His (Malus domestica, UniProt D9ZJ88 1-204)
T1 sequence: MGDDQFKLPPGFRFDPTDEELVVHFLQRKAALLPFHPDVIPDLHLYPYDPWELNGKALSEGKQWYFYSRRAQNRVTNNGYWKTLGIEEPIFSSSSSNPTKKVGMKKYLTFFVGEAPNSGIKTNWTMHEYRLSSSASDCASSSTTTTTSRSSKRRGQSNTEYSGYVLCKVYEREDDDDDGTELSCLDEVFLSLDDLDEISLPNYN

B1: MdF3H-a-P5 (dsDNA)
DNA 1: CAATTGAGTAATTTCGTTCTTAATTCTTTT
DNA 2: AAAAGAATTAAGAACGAAATTACTCAATTG
B2: MdFSD2-P3 (dsDNA)
DNA 1: GTCATTTTGGACGAAAACTTTAATGAAAAT
DNA 2: ATTTTCATTAAAGTTTTCGTCCAAAATGAC
B3: MdF3H-a-P7 (dsDNA)
DNA 1: CAAAAATATTTTCCGTAATGAAGTGTCTTG
DNA 2: CAAGACACTTCATTACGGAAAATATTTTTG
B4: MdCBF3-P1-mut (dsDNA)
DNA 1: TATATATATTAAAAAAGATTGGGTGATGAG
DNA 2: CTCATCACCCAATCTTTTTTAATATATATA
B5: MdCBF3-P1 (dsDNA)
DNA 1: TATATATATTCATGTGGATTGGGTGATGAG
DNA 2: CTCATCACCCAATCCACATGAATATATATA
B6: MdANS-b-P4 (dsDNA)
DNA 1: GATTCCTATATATACGTAACTAGCTCATAG
DNA 2: CTATGAGCTAGTTACGTATATATAGGAATC
B7: MdCBF1-P1-mut (dsDNA)
DNA 1: CATCCCCAAAAAAAGTACACAACCAACACA
DNA 2: TGTGTTGGTTGTGTACTTTTTTTGGGGATG
B8: MdCHI-P1 (dsDNA)
DNA 1: CTTTTGAGTTGGTTTCGTTGAAGACTTTTT
DNA 2: AAAAAGTCTTCAACGAAACCAACTCAAAAG
B9: MdF3H-a-P3 (dsDNA)
DNA 1: GTTACCCCATATGACCATGTAACCGTCTGA
DNA 2: TCAGACGGTTACATGGTCATATGGGGTAAC
B10: MdF3H-a-P2 (dsDNA)
DNA 1: ACATAGATGAATACATGTCACCGCCATAAT
DNA 2: ATTATGGCGGTGACATGTATTCATCTATGT
B11: MdCBF1-P1 (dsDNA)
DNA 1: B7 DNA 1 with A9C, A10G
DNA 2: B7 DNA 2 with T21C, T22G
B12: MdCHS-b-P4 (dsDNA)
DNA 1: TCCTTTTTACGAAAGTGACATTACAACGAA
DNA 2: TTCGTTGTAATGTCACTTTCGTAAAAAGGA
B13: MdPRXR1.1-P2 (dsDNA)
DNA 1: TTTGTAACTAACGGAAAACTTAATACAAAA
DNA 2: TTTTGTATTAAGTTTTCCGTTAGTTACAAA
B14: MdF3H-a-P1 (dsDNA)
DNA 1: CAAACACAAAACGTATTTCGTTTGAGCCAA
DNA 2: TTGGCTCAAACGAAATACGTTTTGTGTTTG
B15: MdCHS-b-P2 (dsDNA)
DNA 1: GATGTGGAACATGTGTGGCTATTAGGTTGGTATTCACACGAAATACGACCTACTATATAC
DNA 2: GTATATAGTAGGTCGTATTTCGTGTGAATACCAACCTAATAGCCACACATGTTCCACATC
B16: MdANS-b-P1 (dsDNA)
DNA 1: GGTGAGATGTCACATGTACAACAGCCACAT
DNA 2: ATGTGGCTGTTGTACATGTGACATCTCACC

What follows are binders tested against T1, MdNAC104-His (assay: EMSA; LightShift Chemiluminescent EMSA kit (Thermo) per manufacturer; buffer, salt, pH and temperature not stated). Details: protein: recombinant; tags: His (pET32a); chain copies: 2; label: biotin; blunt.

Row | Binder | binding result
1 | B1 | binds
2 | B2 | binds
3 | B3 | binds
4 | B4 | no binding
5 | B5 | binds
6 | B6 | binds
7 | B7 | no binding
8 | B8 | binds
9 | B9 | binds
10 | B10 | binds
11 | B11 | binds
12 | B12 | binds
13 | B13 | binds
14 | B14 | binds
15 | B15 | binds
16 | B16 | binds
